The target of data set [1] is T1, NalC-His (Pseudomonas aeruginosa K767, UniProt Q9HXS0 1-213). Description: EMSA; 300-2000 ng NalC-His, 40 ng DNA. The conditions noted are these: protein: recombinant; tags: C-terminal His (pET23a); chain copies: 2; blunt.
For data set [2], the target named is T1, NalC-His. Description: EMSA; data not shown. To be noted: protein: recombinant; tags: C-terminal His (pET23a); chain copies: 2.

B1: NalC-1 (endpoints III) (dsDNA)
DNA 1: TGGTCATTTAAGAACTGTATCGTACAGTACTGTTTTGGCAA
DNA 2: TTGCCAAAACAGTACTGTACGATACAGTTCTTAAATGACCA
B1: in data set [1], the binding result is reported as “binds”.

B2: NalC-2 (endpoints IV) (dsDNA)
DNA 1: TTGGCAAGCACTTCCGCTCATTCCTCCGCCTTGCCTCCCGC
DNA 2: GCGGGAGGCAAGGCGGAGGAATGAGCGGAAGTGCTTGCCAA
Regarding B2, in data set [1], the binding result is “no binding”.

B3: 21-bp inverted repeat only (dsDNA)
DNA 1: AGAACTGTATCGTACAGTACT
DNA 2: AGTACTGTACGATACAGTTCT
As for B3, the binding result in data set [2] was “no binding”.
